Experimental data reported in patent publication EP4631959A2, “NOVEL MINIGASTRIN-DERIVED CHOLECYSTOKININ 2 RECEPTOR BINDING MOLECULES FOR IMAGING AND TARGETED RADIOTHERAPY” (priority 2022, dated 2024).
Read-outs that look alike come from different tables or passages of the source. Starred links: 1 amine or outer side, 2 acyl side, 3 side chain; linkers in the order of their positions; H or OH if unused. Non-standard residues stand in square brackets, D forms with d. Residues, ends and D or L forms follow the SMILES beside them. *: point of attachment. Benzoyl(4-SiFtBu2) = CC(C)(C)[Si](F)(c1ccc(C(=O)*)cc1)C(C)(C)C; DOTA = O=C(O)CN1CCN(CC(=O)O)CCN(CC(=O)*)CCN(CC(=O)O)CC1; d(γGlu) = O=C(O)[C@@H](CCC(=O)[*:2])N[*:1]; 1Nal = N[C@@H](Cc1cccc2ccccc12)C(=O)O; Hyp = O=C(O)[C@@H]1C[C@@H](O)CN1; NMeNle = CCCC[C@H](NC)C(=O)O; PEG4 = NCCOCCOCCOCCOCCC(=O)O; dDap = NC[C@@H](N)C(=O)O

What was measured:
[1] = n-Octanol-PBS distribution coefficient (logD7.4); type: physicochemical; conditions: pH = 7.4, ^177Lu-labeled
Method: Approximately 1 MBq of the labeled tracer was dissolved in 1 mL of a 1/1 mixture (v/v) of phosphate buffered saline (PBS, pH = 7.4) and n-octanol in an Eppendorf tube (1.5 mL). After vigorous mixing of the suspension for 3 min at rt, the vial was centrifuged at 9,000 rpm for 5 min (Biofuge 15, Heraeus Sepatech, Osterode, Germany) and 200 µL aliquots of both layers were measured in a γ-counter. The experiment was repeated at least five times.

[2] = target: T1, Human serum albumin (HSA) (Homo sapiens, UniProt P02768); assay: Determination of HSA binding on a Chiralpak HSA column; type: in vitro ADME; conditions: Tab. 8; metal not stated (Fig. 18: ^natLu)
T1 construct: purchased Daicel, Tokyo, Japan H13H-2433
T1 sequence (P02768 25-609): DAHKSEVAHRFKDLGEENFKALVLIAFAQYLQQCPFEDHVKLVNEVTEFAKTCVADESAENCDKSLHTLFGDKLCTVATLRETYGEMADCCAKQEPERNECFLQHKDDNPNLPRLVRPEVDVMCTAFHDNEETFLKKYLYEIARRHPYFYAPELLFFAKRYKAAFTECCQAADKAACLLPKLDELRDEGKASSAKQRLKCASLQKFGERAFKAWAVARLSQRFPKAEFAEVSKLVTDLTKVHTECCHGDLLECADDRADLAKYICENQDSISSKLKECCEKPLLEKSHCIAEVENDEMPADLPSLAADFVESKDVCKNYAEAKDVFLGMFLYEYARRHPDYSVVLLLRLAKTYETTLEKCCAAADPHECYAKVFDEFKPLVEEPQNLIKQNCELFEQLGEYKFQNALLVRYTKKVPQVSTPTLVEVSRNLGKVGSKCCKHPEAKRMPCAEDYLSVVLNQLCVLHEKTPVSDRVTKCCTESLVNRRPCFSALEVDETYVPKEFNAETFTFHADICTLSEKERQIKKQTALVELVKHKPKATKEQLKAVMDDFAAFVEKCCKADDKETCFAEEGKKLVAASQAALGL
Method in brief: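 Retention on an HSA column with a 50 mM NH4OAc (pH 6.9)/isopropanol gradient at 0.5 mL/min, rt; samples run at 0.5 mg/mL in A/B (1/1). Binding derived by non-linear regression against nine reference compounds spanning 13 to 99% HSA binding.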

[3] = Biodistribution in AR4-2J tumor-bearing CB17-SCID mice; type: in vivo; conditions: female, CB17-SCID, mouse, in vivo, iv, 100 pmol, total radioactivity, 100 pmol; for tissue uptake at 1 h: 1 h p.i.; for tissue uptake at 2 h: 2 h p.i.; for tissue uptake at 4 h: 4 h p.i.
Method: All animal experiments were conducted in accordance with general animal welfare regulations in Germany (German animal protection act, in the edition of the announcement, dated May 18th, 2006, as amended by Article 280 of June 19th 2020, approval no. ROB-55.2-1-2532.Vet_02-18-109 by the General Administration of Upper Bavaria) and the institutional guidelines for the care and use of animals. CB17-SCID mice of both genders (Charles River Laboratories International Inc., Sulzfeld, Germany) were let to acclimate at the in-house animal facility at least for one week before inoculation was performed. To establish tumor xenografts, AR4-2J cells (5.0 × 10^6 cells per 200 µL) were suspended in a 1/1 mixture (v/v) of Dulbecco modified Eagle medium / Nutrition Mixture F-12 with Glutamax-I (1/1) and Cultrex® Basement Membrane Matrix Type 3 (Trevigen, Gaithersburg, MD, USA) and inoculated subcutaneously onto the right shoulder of 6-10 weeks old CB17-SCID mice (Charles River, Sulzfeld, Germany). Mice were used for experiments when tumors had grown to a volume of 150-300 mm^3 (1-2 weeks after inoculation). Exclusion criteria for animals from an experiment were either a weight loss higher than 20%, a tumor size above 1,500 mm^3, an ulceration of the tumor, a respiratory distress or a change of behavior. None of these criteria applied to any animal from the experiment. Neither randomization nor blinding was applied in the allocation of the experiments. Health status is SPF according to FELASA.
Approximately 1-5 MBq (100 pmol) of the radiolabeled minigastrin analogues were injected into the tail vein of AR4-2J tumor-bearing female CB17-SCID mice and sacrificed at 1 to 24 h post injection (n = 4-5). Selected organs were removed, weighted and measured in a γ-counter.

CCK-2R = assay: Competition studies in AR4-2J tumor-bearing CB17-SCID mice; type: in vivo; conditions: co-administration of excess unlabeled competitor (40 nmol), 24 h p.i.
Method: For competition studies, the radiolabeled compound (approx. 1-5 MBq, 100 pmol) was co-injected with [^natLu]Lu-DOTA-MGS5 (40 nmol) into the tail vein of AR4-2J tumor-bearing CB17-SCID mice and sacrificed at 1 to 24 h post injection (n = 2). Selected organs were removed, weighted and measured in a γ-counter.

[4] = In vivo stability studies in murine serum and urine; parameters: species or system CB17-SCID mice; conditions: 30 min p.i.
Method: Stability studies were performed via injection of the ^177Lu-labeled peptide (approx. 35 MBq, 1 nmol) into the tail vein (n = 3) of anesthetized (2% isoflurane) CB17-SCID mice. At 30 min p.i. the mice were euthanized and a urine as well as a blood sample were taken. The urine sample was analyzed without further treatment. The blood sample was centrifuged at 5,000 rpm for 2 min. Afterwards, the serum was collected and ice-cold MeCN (1:1, v/v) as well as EtOH (1:2, v/v) were added. The sample was centrifuged at 5,000 rpm for 2 min once more and the supernatant was analyzed via RP-HPLC (10→30% in 5 min, 30→60% in 15 min, MeCN/H2O + 0.1% TFA).

[5] = read-out: activity levels in the blood
[6] = read-out: activity levels in the tumor

CCCC[C@@H](C(=O)N[C@@H](CC(=O)O)C(=O)N[C@@H](Cc1cccc2ccccc12)C(N)=O)N(C)C(=O)[C@H](Cc1c[nH]c2ccccc12)NC(=O)CCOCCOCCOCCOCCNC(=O)CC[C@@H](NC(=O)[C@@H]1C[C@@H](O)CN1C(=O)[C@@H]1C[C@@H](O)CN1C(=O)[C@@H]1C[C@@H](O)CN1C(=O)[C@@H]1C[C@@H](O)CN1C(=O)[C@@H]1C[C@@H](O)CN1C(=O)[C@@H]1C[C@@H](O)CN1C(=O)CC[C@@H](NC(=O)[C@@H](CNC(=O)c1ccc([Si](F)(C(C)(C)C)C(C)(C)C)cc1)NC(=O)CN1CCN(CC(=O)O)CCN(CC(=O)O)CCN(CC(=O)O)CC1)C(=O)O)C(=O)O [DOTA-rhCCK-84, DOTA-dap(SiFA)-γ-glu-(Hyp)6-γ-glu-(PEG)3-Trp-(N-Me)Nle-Asp-1-Nal-NH2] ({DOTA}-[dDap](Benzoyl(4-SiFtBu2))[d(γGlu)][Hyp][Hyp][Hyp][Hyp][Hyp][Hyp][d(γGlu)][PEG4]W[NMeNle]D[1Nal]-NH2)
logD7.4 (n ≥ 5), ^177Lu-labeled [1]: -2.14 ± 0.06 | logD7.4 (n ≥ 5), ^177Lu-labeled ([1]; listed as [^nat/177Lu]Lu-DOTA-rhCCK-84): -2.14 ± 0.06 | HSA binding [%] [2]: 90.0% | tissue uptake at 1 h [3, 5]: 11.3 ± 1.3 %ID/g | tissue uptake at 1 h ([3]; read-out: tumor uptake): 36.3 ± 3.7 %ID/g | tissue uptake at 2 h [3, 5]: 3.71 ± 0.46 %ID/g | tissue uptake at 2 h [3, 6]: 35 ± 2.9 %ID/g | tissue uptake at 4 h [3, 5]: 1.14 ± 0.18 %ID/g | tissue uptake at 4 h [3, 6]: 34 ± 3.6 %ID/g | tissue uptake at 24 h ([3]; 24 h p.i., read-out: activity levels in the kidneys): < 10 %ID/g | activity levels in stomach and tumor in competition studies (CCK-2R specificity) (CCK-2R): significantly decreased activity levels in both stomach and tumor | in vivo stability in the serum (intact compound) ([4]; murine serum): 93.5 ± 2.1% | in vivo stability in the urine (intact compound) ([4]; murine urine): 55.4 ± 9.0%
